For 9 molecules, He/Con_1a and He/Con_2b results are on record in patent publication US20180155451A1 (published 2018).

Assay [1] has as its target T1, FcγRIa extracellular domain with C-terminal His tag (human, UniProt P12314 16-292).
T1 construct: extracellular domain; Soluble receptor expressed in FreeStyle293 cells, used as analyte in Biacore; also called FcgRI; CD64; not shown: His tag at the C terminus
Briefly: SPR (Biacore), antibody captured via antigen peptide, FcγR as analyte; binding relative to GpH7-A5/GpH7-B3/GpL16-k0 = 100.

Assay [2] deals with T2, FcγRIIb extracellular domain with C-terminal His tag (human, UniProt P31994 43-217).
T2 construct: extracellular domain; Soluble receptor expressed in FreeStyle293 cells, used as analyte in Biacore; also called FcgRIIb; CD32B; not shown: His tag at the C terminus
T2 sequence (looked up): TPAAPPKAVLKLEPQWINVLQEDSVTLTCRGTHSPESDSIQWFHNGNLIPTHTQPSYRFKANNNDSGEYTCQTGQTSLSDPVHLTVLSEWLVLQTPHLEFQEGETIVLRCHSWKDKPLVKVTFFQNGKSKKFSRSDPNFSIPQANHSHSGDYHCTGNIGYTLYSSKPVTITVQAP
The description is as above.

For another assay, the target named is T3, FcγRIIb (human, UniProt P31994 43-217).
T3 construct: extracellular domain; also called FcgRIIb; 2b; not shown: His tag at the C terminus
T3 sequence (looked up): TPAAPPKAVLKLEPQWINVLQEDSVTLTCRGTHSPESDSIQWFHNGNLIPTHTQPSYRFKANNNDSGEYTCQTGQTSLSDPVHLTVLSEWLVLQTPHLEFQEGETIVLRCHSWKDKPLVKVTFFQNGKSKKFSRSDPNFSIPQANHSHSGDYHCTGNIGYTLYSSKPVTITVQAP
Description: SPR (Biacore), antibody captured, FcγR as analyte; binding as % of GpH7-A5/GpH7-B3/GpL16-k0.

The next assay deals with T4, FcγRIa (human, UniProt P12314 16-292).
T4 construct: extracellular domain; also called FcgRI; 1a; not shown: His tag at the C terminus
The assay is described as above.

T1 sequence (P12314 16-292): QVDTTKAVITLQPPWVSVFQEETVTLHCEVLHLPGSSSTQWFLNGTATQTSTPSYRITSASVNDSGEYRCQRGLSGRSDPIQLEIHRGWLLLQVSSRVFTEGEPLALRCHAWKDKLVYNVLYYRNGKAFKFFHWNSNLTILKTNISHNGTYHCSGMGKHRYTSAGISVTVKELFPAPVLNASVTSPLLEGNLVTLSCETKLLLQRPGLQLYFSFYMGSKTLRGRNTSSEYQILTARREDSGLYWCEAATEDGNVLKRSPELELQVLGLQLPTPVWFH
T4 sequence (P12314 16-292): as above

B1: GpH7-A5/GpH7-B3 variant P271_19Q/GpL16-k0 (antibody, human IgG1, kappa)
heavy 1: not shown
heavy 2: not shown
light: DIVMTQSPLSLPVTPGEPASISCQASESLVHSNRNTYLHWYLQKPGQSPQLLIYKVSNRFSGVPDRFSGSGSGTDFTLKISRVEAEDVGVYYCSQNTHVPPTFGQGTKVEIERTVAAPSVFIFPPSDEQLKSGTASVVCLLNNFYPREAKVQWKVDNALQSGNSQESVTEQDSKDSTYSLSSTLTLSKADYEKHKVYACEVTHQGLSSPVTKSFNRGEC
notes: Heterodimerized anti-glypican-3 IgG1; substitution in only one H chain; also called P271Q; He Ab
In the case of B1, in assay [1], the He/Con_1a was 103 % of control (GpH7-A5/GpH7-B3/GpL16-k0 = 100). Further, the He/Con_2b in assay [2] is 88.6 % of control (GpH7-A5/GpH7-B3/GpL16-k0 = 100).

B2: GpH7-A5/GpH7-B3 variant A327_18N/GpL16-k0 (antibody, human IgG1, kappa)
heavy 1: not shown
heavy 2: not shown
light: DIVMTQSPLSLPVTPGEPASISCQASESLVHSNRNTYLHWYLQKPGQSPQLLIYKVSNRFSGVPDRFSGSGSGTDFTLKISRVEAEDVGVYYCSQNTHVPPTFGQGTKVEIERTVAAPSVFIFPPSDEQLKSGTASVVCLLNNFYPREAKVQWKVDNALQSGNSQESVTEQDSKDSTYSLSSTLTLSKADYEKHKVYACEVTHQGLSSPVTKSFNRGEC
notes: heterodimerized IgG1; alteration in the GpH7-B3 H chain only; also called He Ab
For B2, in the assay with FcγRIIb, the He/Con_2b was 113 % of control. The He/Con_1a with FcγRIa was 97.7 % of control.

B3: GpH7-A5/GpH7-B3 variant Q295_03V/GpL16-k0 (antibody, human IgG1, kappa)
heavy 1: not shown
heavy 2: not shown
light: DIVMTQSPLSLPVTPGEPASISCQASESLVHSNRNTYLHWYLQKPGQSPQLLIYKVSNRFSGVPDRFSGSGSGTDFTLKISRVEAEDVGVYYCSQNTHVPPTFGQGTKVEIERTVAAPSVFIFPPSDEQLKSGTASVVCLLNNFYPREAKVQWKVDNALQSGNSQESVTEQDSKDSTYSLSSTLTLSKADYEKHKVYACEVTHQGLSSPVTKSFNRGEC
notes: Heterodimerized anti-glypican-3 IgG1; substitution in only one H chain; also called Q295V; He Ab
Turning to B3, the He/Con_1a in assay [1] was 104 % of control (GpH7-A5/GpH7-B3/GpL16-k0 = 100). Besides, the He/Con_2b in assay [2] is 75.7 % of control (GpH7-A5/GpH7-B3/GpL16-k0 = 100).

B4: GpH7-A5/GpH7-B3 variant P331_04F/GpL16-k0 (antibody, human IgG1, kappa)
heavy 1: not shown
heavy 2: not shown
light: DIVMTQSPLSLPVTPGEPASISCQASESLVHSNRNTYLHWYLQKPGQSPQLLIYKVSNRFSGVPDRFSGSGSGTDFTLKISRVEAEDVGVYYCSQNTHVPPTFGQGTKVEIERTVAAPSVFIFPPSDEQLKSGTASVVCLLNNFYPREAKVQWKVDNALQSGNSQESVTEQDSKDSTYSLSSTLTLSKADYEKHKVYACEVTHQGLSSPVTKSFNRGEC
notes: as for B2
On to B4, for which the He/Con_2b in the assay with FcγRIIb is 110 % of control. Further, the He/Con_1a in the assay with FcγRIa is 95.5 % of control.

B5: GpH7-A5/GpH7-B3 variant Q295_06M/GpL16-k0 (antibody, human IgG1, kappa)
heavy 1: not shown
heavy 2: not shown
light: DIVMTQSPLSLPVTPGEPASISCQASESLVHSNRNTYLHWYLQKPGQSPQLLIYKVSNRFSGVPDRFSGSGSGTDFTLKISRVEAEDVGVYYCSQNTHVPPTFGQGTKVEIERTVAAPSVFIFPPSDEQLKSGTASVVCLLNNFYPREAKVQWKVDNALQSGNSQESVTEQDSKDSTYSLSSTLTLSKADYEKHKVYACEVTHQGLSSPVTKSFNRGEC
notes: Heterodimerized anti-glypican-3 IgG1; substitution in only one H chain; also called Q295M; He Ab
As to B5, in assay [1], the He/Con_1a is 104 % of control (GpH7-A5/GpH7-B3/GpL16-k0 = 100). For the same molecule, the He/Con_2b in assay [2] was 90.4 % of control (GpH7-A5/GpH7-B3/GpL16-k0 = 100).

B6: GpH7-A5/GpH7-B3 variant P271_20W/GpL16-k0 (antibody, human IgG1, kappa)
heavy 1: not shown
heavy 2: not shown
light: DIVMTQSPLSLPVTPGEPASISCQASESLVHSNRNTYLHWYLQKPGQSPQLLIYKVSNRFSGVPDRFSGSGSGTDFTLKISRVEAEDVGVYYCSQNTHVPPTFGQGTKVEIERTVAAPSVFIFPPSDEQLKSGTASVVCLLNNFYPREAKVQWKVDNALQSGNSQESVTEQDSKDSTYSLSSTLTLSKADYEKHKVYACEVTHQGLSSPVTKSFNRGEC
notes: Heterodimerized anti-glypican-3 IgG1; substitution in only one H chain; also called P271W; He Ab
On to B6, for which the He/Con_1a in assay [1] was 103 % of control (GpH7-A5/GpH7-B3/GpL16-k0 = 100). The He/Con_2b in assay [2] is 58.1 % of control (GpH7-A5/GpH7-B3/GpL16-k0 = 100).

B7: GpH7-A5/GpH7-B3 variant Q295_05P/GpL16-k0 (antibody, human IgG1, kappa)
heavy 1: not shown
heavy 2: not shown
light: DIVMTQSPLSLPVTPGEPASISCQASESLVHSNRNTYLHWYLQKPGQSPQLLIYKVSNRFSGVPDRFSGSGSGTDFTLKISRVEAEDVGVYYCSQNTHVPPTFGQGTKVEIERTVAAPSVFIFPPSDEQLKSGTASVVCLLNNFYPREAKVQWKVDNALQSGNSQESVTEQDSKDSTYSLSSTLTLSKADYEKHKVYACEVTHQGLSSPVTKSFNRGEC
notes: Heterodimerized anti-glypican-3 IgG1; substitution in only one H chain; also called Q295P; He Ab
Consider B7, for which the He/Con_1a in assay [1] is 103 % of control (GpH7-A5/GpH7-B3/GpL16-k0 = 100). The He/Con_2b in assay [2] is 67.5 % of control (GpH7-A5/GpH7-B3/GpL16-k0 = 100).

B8: GpH7-A5/GpH7-B3 variant P271_16H/GpL16-k0 (antibody, human IgG1, kappa)
heavy 1: not shown
heavy 2: not shown
light: DIVMTQSPLSLPVTPGEPASISCQASESLVHSNRNTYLHWYLQKPGQSPQLLIYKVSNRFSGVPDRFSGSGSGTDFTLKISRVEAEDVGVYYCSQNTHVPPTFGQGTKVEIERTVAAPSVFIFPPSDEQLKSGTASVVCLLNNFYPREAKVQWKVDNALQSGNSQESVTEQDSKDSTYSLSSTLTLSKADYEKHKVYACEVTHQGLSSPVTKSFNRGEC
notes: Heterodimerized anti-glypican-3 IgG1; substitution in only one H chain; also called P271H; He Ab
As to B8, the He/Con_1a in assay [1] is 102 % of control (GpH7-A5/GpH7-B3/GpL16-k0 = 100). Further, in assay [2], the He/Con_2b is 67.9 % of control (GpH7-A5/GpH7-B3/GpL16-k0 = 100).

B9: GpH7-A5/GpH7-B3 variant P331_10E/GpL16-k0 (antibody, human IgG1, kappa)
heavy 1: not shown
heavy 2: not shown
light: DIVMTQSPLSLPVTPGEPASISCQASESLVHSNRNTYLHWYLQKPGQSPQLLIYKVSNRFSGVPDRFSGSGSGTDFTLKISRVEAEDVGVYYCSQNTHVPPTFGQGTKVEIERTVAAPSVFIFPPSDEQLKSGTASVVCLLNNFYPREAKVQWKVDNALQSGNSQESVTEQDSKDSTYSLSSTLTLSKADYEKHKVYACEVTHQGLSSPVTKSFNRGEC
notes: as for B2
For the molecule B9, the He/Con_2b with FcγRIIb is 116 % of control. For the same molecule, the He/Con_1a with FcγRIa is 95 % of control.
